Consider seven molecules from patent US9296786B2, “Shortened secreted polypeptides” (TWO TO BIOTECH LTD., priority 2009, dated 2016).

Assay [1] in a line: Effect of PRT6 administration on blood serum testosterone level (R&D Systems Testosterone Immunoassay). The class given is in vivo, Balb/C mice. How it is done:
Two groups of Balb/C mice were used: • 3-4 week-old male Balb/C—Negative control for testosterone—18 mice • 7-8 week-old male Balb/C mice—18 mice
Each group was divided into 3 sub-groups (6 mice each). Each group was injected every day for a 4 day-period with 200 μl of one of the following: • 4% DMSO in double-distilled water (DDW) • 0.5 μg/kg of PRT6 (diluted in DDW) • 5 μg/kg of PRT6 (diluted in DDW)
After 4 days, blood serum was extracted from the mice and tested for testosterone levels. Testosterone measurement was done using the R&D Systems Testosterone Immunoassay (R&D Systems Catalog Number KGE010). This assay is based on the competitive binding technique. A monoclonal antibody specific for testosterone binds to the goat anti-mouse antibody coated onto the microplate. Following a wash to remove excess monoclonal antibody, testosterone present in the sample competes with a fixed amount of horseradish peroxidase (HRP)-labeled testosterone for sites on the monoclonal antibody. This is followed by another wash to remove excess conjugate and unbound sample. A substrate solution is added to the wells to determine the bound enzyme activity. Color development is stopped, and absorbance is read at 450 nm. The intensity of the color is inversely proportional to the concentration of testosterone in the sample.

The nature of assay [2]: IPGTT in mice treated with streptozotocyn (STZ), after 4-5 weeks of peptide treatment. The class given is in vivo, C57B1/6 mice. Particulars: STZ-treated C57B1/6 male mice; PRT8 100 μg/mice; sbPRT8 20, 100 or 300 μg/mice; 4 or 5 weeks of treatment; sbPRT8 compared with PRT8. The text has this: In the following experiments, a sbPRT8 peptide blocked with an acetyl moiety at the N-terminal end and an amide moiety (NH2) at the C-terminal end has been employed. The effect of sbPRT8 administration on glucose levels was examined and compared to the effect obtained with PRT8 in mice treated with streptozocin (STZ). As known in the art, STZ is a chemical compound that is particularly toxic to the insulin-producing beta cells of the pancreas in mammals. It is used in medicine for treating certain cancers of the Islets of Langerhans and used in medical research to produce an animal model for Type 1 diabetes as well as Type 2 diabetes.
C57B1/6 males mice were purchased from Harlan Laboratories Ltd., Jerusalem, Israel, After 7 days of rest, mice were IP injected with 50 mg/kg STZ for 4 days. Five days after STZ injection, mice were treated as follows: • Group A (control)—100 μg/mice of PRT8 (control) • Group B (treatment)—20 μg/mice of sbPRT8 (treatment 1) • Group C (control)—100 μg/mice of sbPRT8 (treatment 2)
After 5 weeks of treatment mice were starved for food only for 12 h and then were IP injected with […] of glucose solution (IPGTT). The level of glucose in mice blood was measured with Accucheck glucometer (Roche) at t=0, 15, 30, 60, 90 and 120 minutes following glucose injection.
C57B1/6 males mice were purchased from Harlan Laboratories Ltd., Jerusalem, Israel. After 7 days of rest, mice were IP injected with 50 mg/kg STZ for 4 days. Five days after STZ injection, mice were treated as follows: • Group A (control)—100 μg/mice of PRT8 (control) • Group B (treatment)—100 μg/mice of sbPRT8 (treatment 1) • Group C (control)—300 μg/mice of sbPRT8 (treatment 2)
After 4 weeks of treatment mice were starved for food only for 12 h and then were IP injected with […] of glucose solution (IPGTT). The level of glucose in mice blood was measured with Accucheck glucometer (Roche) at t=0, 15, 30, 60, 90 and 120 minutes following glucose injection.

For a further assay, the system named is p53. Description: Induction of p53 expression by PRT7 (data not shown).
The nature of assay [3]: Effect of PRT5 administration on glucose levels after glucose injection in starved mice. The class given is in vivo, C57B1 mice. To be noted: starting 2 days and up to 4 days after injection; 2 mg/kg glucose after overnight starvation. How it is done:
The mice were divided into 4 groups. The first group was starved and checked for blood glucose levels (using an Accu-Chek® Performa device, Roche Diagnostics) one day after injection; the second group—two days after injection, the third group—three days after injection and the fourth group—four days after injection. Starvation was done overnight (the night before glucose injection), and the next day 2 mg/kg of glucose was injected to each mouse. A time course analysis of glucose levels was performed with glucose levels checked at t=0, 30, 90, 120, 150 and 240 minutes.

A further assay deals with insulin receptors. As to the kind of experiment: Levels of insulin receptors in skeletal muscle of mice treated with PRT5. The class given is in vivo. To be noted: data not shown.
A short description of assay [4]: Effect of PRT8 administration on glucose levels after glucose injection in starved mice. The class given is in vivo, C57B1 mice. To be noted: 1 μg/kg or 10 μg/kg PRT8. How it is done: All the mice were injected with PRT8 (or saline) on day 1. The first group was starved on day 2 and checked for blood glucose levels (using an Accu-Chek®Performa device, Roche Diagnostics) on day three. The second group was starved and checked for blood glucose levels three days after injection. Starvation was done overnight (the night before glucose injection), and the next day 2 mg/kg of glucose was injected to each mouse. A time course analysis of glucose levels was performed with glucose levels checked at t=0, 30, 60 and 120 minutes following glucose injection.

Turning to “PRT6: novel chemokine-like secreted polypeptide from human cDNA libraries, amino acid sequence SEQ. ID. NO. 2 (MPPFSVGLVVVVNVVCLMLYESTTILRLYGIILFMRDLKLEVEDAKITIALALRNS; listed as Homo sapiens)”, in assay [1] (0.5 μg/kg or 5 μg/kg PRT6 daily for 4 days, male Balb/C), the “testosterone levels in blood serum” value is given as “significant increase”. Also, the “effect on testosterone levels of 5 μg/kg compared with 0.5 μg/kg” value in assay [1] (5 μg/kg vs 0.5 μg/kg PRT6, daily for 4 days) is reported as “much more pronounced”.
In the case of “PRT8 C-ter: PRT8 fragment, sequence LLVSLYPA (listed as Homo sapiens)”, the “reduction of blood glucose level (IPGTT)” value in assay [2] is “no significant blood glucose reduction”.
Turning to “sbPRT8: shortened C-terminal fragment of PRT8, sequence KPETCPGLLV SLYPA (KPETCPGLLVSLYPA; listed as Homo sapiens)”, the “reduction of blood glucose level (IPGTT)” value in assay [2] is reported as “very significant improvement”.
“PRT8 N-ter: PRT8 fragment, sequence SHLFGSFAWN FLLSS (SHLFGSFAWNFLLSS; listed as Homo sapiens)”: the “reduction of blood glucose level (IPGTT)” value in assay [2] is “no significant blood glucose reduction”.

B1: PRT7: novel chemokine-like secreted polypeptide from human cDNA libraries, amino acid sequence SEQ. ID. NO. 3 (protein, listed as Homo sapiens)
chain: MGMIVPPSLAAAGGASTTPRLHALRLTSLLHQHLDLCLHPSPLPTPPSAPCLSGLVPPDSSLSVLDTLQV
With B1, the “expression of p53” value in the assay with p53 is listed as “can induce the expression of p53”.

B2: PRT5: novel chemokine-like secreted polypeptide from human cDNA libraries, amino acid sequence SEQ. ID. NO. 1 (protein, listed as Homo sapiens)
chain: MKPMERWWSRALFTTCPVGPSGCAAGLLWPRNTDARSPLHSQTLWVCSWAALAQKHRCTVTPAQPAP
In the case of B2, the “glucose levels compared with mice administered saline” value in assay [3] is “significantly lower”. For the same molecule, the “levels of insulin receptors in skeletal muscle” value in the assay on insulin receptors is reported as “capable of increasing the levels of insulin receptors”.

B3: PRT8: novel chemokine-like secreted polypeptide from human cDNA libraries, amino acid sequence SEQ. ID. NO. 4; full length PRT8 peptide (protein, listed as Homo sapiens)
chain: MLVFLKLWPQCLFFALTFFLRNCIYFKDFLSHLFGSFAWNFLLSSRSMDPTSCWTAPIWRSHRPLNSAPVSESPNYPLFTWSLKPETCPGLLVSLYPA
For the molecule B3, in assay [4] (starting 2 days after administration, 2 mg/kg glucose after overnight starvation), the “glucose levels compared with mice administered saline” value was “significantly lower”. Also, the “glucose-lowering effect three days following injection compared with two days” value in assay [4] (three days following PRT8 injection) is on record as “more evident”. Moreover, the “reduction of blood glucose level (IPGTT)” value in assay [2] is given as “significant reduction”.
